Laboratory results taken from publication PMC9638917, “Non-canonical Staphylococcus aureus pathogenicity island repression”.

Tests used:
[1] = biological target: SaPI1 Stl repressor (Stl^SaPI1), expressed alone with an N-terminal His6-tag and TEV site (Staphylococcus aureus (pathogenicity island SaPI1)); experiment: SEC-SAXS; 10.0 mg/ml Stl^SaPI1 and 6.5 mg/ml Stl^SaPI1-Sri (His6 tag on Sri); Superdex 200 Increase 3.2, 10 mM Tris pH 8, 1% (w/v) sucrose; mass by Bayesian inference
[2] = biological target: SaPI1 Stl repressor (Stl^SaPI1), expressed alone with an N-terminal His6-tag and TEV site (Staphylococcus aureus (pathogenicity island SaPI1)); experiment: SEC-MALS; 2 mg/ml, Stl alone or in complex with Sri; 50 mM Tris-HCl pH 7.5, 250 mM NaCl, 5 mM MgCl2; Protein KW403 column (Shodex), 0.4 ml/min
[3] = biological target: SaPI1 Stl repressor (Stl^SaPI1), untagged, co-expressed with His6-Sri (Staphylococcus aureus (pathogenicity island SaPI1)); experiment: crystal structure; 80α Sri-Stl^SaPI1 SeMet derivative, His6-tag of Sri removed; sitting drop, 15 °C, 0.4 M ammonium phosphate, 25% PEG200; SAD, 2.9 Å
[4] = biological target: SaPI1 Stl repressor (Stl^SaPI1), untagged, co-expressed with His6-Sri (Staphylococcus aureus (pathogenicity island SaPI1)); experiment: SEC-SAXS; 10.0 mg/ml Stl^SaPI1 and 6.5 mg/ml Stl^SaPI1-Sri (His6 tag on Sri); Superdex 200 Increase 3.2, 10 mM Tris pH 8, 1% (w/v) sucrose; mass by Bayesian inference
[5] = biological target: SaPI1 Stl repressor (Stl^SaPI1), untagged, co-expressed with His6-Sri (Staphylococcus aureus (pathogenicity island SaPI1)); experiment: SEC-MALS; 2 mg/ml, Stl alone or in complex with Sri; 50 mM Tris-HCl pH 7.5, 250 mM NaCl, 5 mM MgCl2; Protein KW403 column (Shodex), 0.4 ml/min
[6] = biological target: SaPI1 Stl repressor L201E mutant (Stl^(SaPI1 L201E)), expressed alone (Staphylococcus aureus (pathogenicity island SaPI1)); experiment: as above
[7] = biological target: SaPI1 Stl repressor L201E mutant (Stl^(SaPI1 L201E)), untagged, co-expressed with His6-Sri (Staphylococcus aureus (pathogenicity island SaPI1)); experiment: crystal structure; 80α Sri-Stl^(SaPI1 L201E), His6-tag of Sri removed; sitting drop, 15 °C, 0.1 M Tris-HCl pH 8.5, 22% PEG350; molecular replacement, 2.97 Å
[8] = biological target: StlSaPI1 (Staphylococcus aureus pathogenicity …, UniProt O54475 1-247); experiment: EMSA; two complex species; BLI: 50 mM Tris-HCl pH 8, 300 mM NaCl, 5 mM MgCl2, 50 uM EDTA, 0.005% Tween, 25 C; EMSA: 50 mM Tris-HCl pH 8, 5 mM MgCl2, 1 mM DTT, 0.1 mM EDTA, 5% glycerol, 1; details: protein: recombinant; tags: N-terminal His6 + TEV site; chain copies: 4; near blunt as printed

What does the source list for “SaPI1 Stl repressor (Stl^SaPI1), expressed alone with an N-terminal His6-tag and TEV site (natural protein)”?
stoichiometry N [1]: 4; stoichiometry N [2]: 4

Which stoichiometry N [3] does the source give for “SaPI1 Stl repressor (Stl^SaPI1), untagged, co-expressed with His6-Sri (natural protein)” here?
The stoichiometry N was 4.

What about the stoichiometry N [4] of the same molecule?
The stoichiometry N was 4.

And the stoichiometry N [5]?
Its stoichiometry N is 4.

Which stoichiometry N [6] does the source give for “SaPI1 Stl repressor L201E mutant (Stl^(SaPI1 L201E)), expressed alone (natural protein)” here?
Its stoichiometry N is 2.

“SaPI1 Stl repressor L201E mutant (Stl^(SaPI1 L201E)), untagged, co-expressed with His6-Sri (natural protein)” was tested. Which stoichiometry N [7] did it give?
Its stoichiometry N is 2.

B1: Operator 1-4 (dsDNA)
DNA 1: GGATAAGTTGTACTTTGAGTACAATATTTTAAAAAATGAAAAAAAAAAAAGAAGTGTGTAATATTTGTTTAAAAAACAAAAAAAAAAAAAGTACTTGTAGTACTAAAAGAAC
DNA 2: GGTTCTTTTAGTACTACAAGTACTTTTTTTTTTTTTGTTTTTTAAACAAATATTACACACTTCTTTTTTTTTTTTCATTTTTTAAAATATTGTACTCAAAGTACAACTTATCC
Does B1 bind [8]?
Result: binds
